Measured values published in patent publication US20230406885A1, “CYCLIC PEPTIDES FOR TRAPPING INTERLEUKIN-1 BETA” (MERCK SHARP & DOHME LLC, priority 2022, published 2023).
*1 amine or outer side, *2 acyl side, *3 side chain or, on linkers, in order; H or OH if unused. [ ]: non-standard residue; d: D form. 3AzaPhe4AcPip = (S)-3-(6-(4-acetylpiperazin-1-yl)pyridin-3-yl)-2-aminopropanoic acid, CC(=O)N1CCN(c2ccc(C[C@H](N[*:1])C(=O)[*:2])cn2)CC1; Pro(trans-4-NH2) = O=C([C@@H]1C[C@@H](N[*:3])CN1[*:1])[*:2]; Bip(4'-COOH) = N[C@@H](Cc1ccc(-c2ccc(C(=O)O)cc2)cc1)C(=O)O; 1Nal(3S-Me) = C[C@@H](c1cccc2ccccc12)[C@H](N)C(=O)O; Ala(pyrimidin-5-yl) = N[C@@H](Cc1cncnc1)C(=O)O; Phe(4-COOH) = N[C@@H](Cc1ccc(C(=O)O)cc1)C(=O)O; Trp(7-aza) = N[C@@H](Cc1c[nH]c2ncccc12)C(=O)O; h3Pal(5-CN) = N#Cc1cncc(CC[C@H](N)C(=O)O)c1; Ala(4-THP) = N[C@@H](CC1CCOCC1)C(=O)O; hTyr = N[C@@H](CCc1ccc(O)cc1)C(=O)O; dNMeA = CN[C@H](C)C(=O)O; Dap = NC[C@H](N)C(=O)O

B1: SEQ ID NO: 23 (peptide)
peptide: cyclo([Bip(4'-COOH)]W[Phe(4-COOH)]G[Pro(trans-4-NH2)][1Nal(3S-Me)]D[dNMeA]G[Bip(4'-COOH)][Ala(4-THP)][Dap][dA][h3Pal(5-CN)])
SMILES: C[C@@H]1C(=O)NCC(=O)N[C@@H](Cc2ccc(-c3ccc(C(=O)O)cc3)cc2)C(=O)N[C@@H](CC2CCOCC2)C(=O)N[C@@H](CN)C(=O)N[C@H](C)C(=O)N[C@@H](CCc2cncc(C#N)c2)C(=O)N[C@@H](Cc2ccc(-c3ccc(C(=O)O)cc3)cc2)C(=O)N[C@@H](Cc2c[nH]c3ccccc23)C(=O)N[C@@H](Cc2ccc(C(=O)O)cc2)C(=O)NCC(=O)N2C[C@H](N)C[C@H]2C(=O)N[C@@H]([C@@H](C)c2cccc3ccccc23)C(=O)N[C@@H](CC(=O)O)C(=O)N1C
B2: SEQ ID NO: 3 (peptide)
peptide: cyclo([3AzaPhe4AcPip]W[Phe(4-COOH)]G[Pro(trans-4-NH2)][1Nal(3S-Me)]D[dNMeA]G[Bip(4'-COOH)]KL[dA][hTyr])
SMILES: CC(=O)N1CCN(c2ccc(C[C@@H]3NC(=O)[C@H](CCc4ccc(O)cc4)NC(=O)[C@@H](C)NC(=O)[C@H](CC(C)C)NC(=O)[C@H](CCCCN)NC(=O)[C@H](Cc4ccc(-c5ccc(C(=O)O)cc5)cc4)NC(=O)CNC(=O)[C@@H](C)N(C)C(=O)[C@H](CC(=O)O)NC(=O)[C@H]([C@@H](C)c4cccc5ccccc45)NC(=O)[C@@H]4C[C@@H](N)CN4C(=O)CNC(=O)[C@H](Cc4ccc(C(=O)O)cc4)NC(=O)[C@H](Cc4c[nH]c5ccccc45)NC3=O)cn2)CC1
B3: SEQ ID NO: 27 (peptide)
peptide: cyclo([Bip(4'-COOH)]W[Phe(4-COOH)]G[Pro(trans-4-NH2)][1Nal(3S-Me)]D[dNMeA]G[Bip(4'-COOH)][Ala(pyrimidin-5-yl)][Dap][dA][h3Pal(5-CN)])
SMILES: C[C@@H]1C(=O)NCC(=O)N[C@@H](Cc2ccc(-c3ccc(C(=O)O)cc3)cc2)C(=O)N[C@@H](Cc2cncnc2)C(=O)N[C@@H](CN)C(=O)N[C@H](C)C(=O)N[C@@H](CCc2cncc(C#N)c2)C(=O)N[C@@H](Cc2ccc(-c3ccc(C(=O)O)cc3)cc2)C(=O)N[C@@H](Cc2c[nH]c3ccccc23)C(=O)N[C@@H](Cc2ccc(C(=O)O)cc2)C(=O)NCC(=O)N2C[C@H](N)C[C@H]2C(=O)N[C@@H]([C@@H](C)c2cccc3ccccc23)C(=O)N[C@@H](CC(=O)O)C(=O)N1C
B4: SEQ ID NO: 26 (peptide)
peptide: cyclo([Bip(4'-COOH)]W[Phe(4-COOH)]G[Pro(trans-4-NH2)][1Nal(3S-Me)]D[dNMeA]G[Bip(4'-COOH)]KL[dS][hTyr])
SMILES: CC(C)C[C@@H]1NC(=O)[C@H](CCCCN)NC(=O)[C@H](Cc2ccc(-c3ccc(C(=O)O)cc3)cc2)NC(=O)CNC(=O)[C@@H](C)N(C)C(=O)[C@H](CC(=O)O)NC(=O)[C@H]([C@@H](C)c2cccc3ccccc23)NC(=O)[C@@H]2C[C@@H](N)CN2C(=O)CNC(=O)[C@H](Cc2ccc(C(=O)O)cc2)NC(=O)[C@H](Cc2c[nH]c3ccccc23)NC(=O)[C@H](Cc2ccc(-c3ccc(C(=O)O)cc3)cc2)NC(=O)[C@H](CCc2ccc(O)cc2)NC(=O)[C@@H](CO)NC1=O
B5: SEQ ID NO: 28 (peptide)
peptide: cyclo([Bip(4'-COOH)]W[Phe(4-COOH)]G[Pro(trans-4-NH2)][1Nal(3S-Me)]D[dNMeA]G[Bip(4'-COOH)][Ala(pyrimidin-5-yl)][Dap][dA][hTyr])
SMILES: C[C@@H]1C(=O)NCC(=O)N[C@@H](Cc2ccc(-c3ccc(C(=O)O)cc3)cc2)C(=O)N[C@@H](Cc2cncnc2)C(=O)N[C@@H](CN)C(=O)N[C@H](C)C(=O)N[C@@H](CCc2ccc(O)cc2)C(=O)N[C@@H](Cc2ccc(-c3ccc(C(=O)O)cc3)cc2)C(=O)N[C@@H](Cc2c[nH]c3ccccc23)C(=O)N[C@@H](Cc2ccc(C(=O)O)cc2)C(=O)NCC(=O)N2C[C@H](N)C[C@H]2C(=O)N[C@@H]([C@@H](C)c2cccc3ccccc23)C(=O)N[C@@H](CC(=O)O)C(=O)N1C
B6: SEQ ID NO: 29 (peptide)
peptide: cyclo([Bip(4'-COOH)]W[Phe(4-COOH)]G[Pro(trans-4-NH2)][1Nal(3S-Me)]D[dNMeA]G[Bip(4'-COOH)][Trp(7-aza)][Dap][dA][hTyr])
SMILES: C[C@@H]1C(=O)NCC(=O)N[C@@H](Cc2ccc(-c3ccc(C(=O)O)cc3)cc2)C(=O)N[C@@H](Cc2c[nH]c3ncccc23)C(=O)N[C@@H](CN)C(=O)N[C@H](C)C(=O)N[C@@H](CCc2ccc(O)cc2)C(=O)N[C@@H](Cc2ccc(-c3ccc(C(=O)O)cc3)cc2)C(=O)N[C@@H](Cc2c[nH]c3ccccc23)C(=O)N[C@@H](Cc2ccc(C(=O)O)cc2)C(=O)NCC(=O)N2C[C@H](N)C[C@H]2C(=O)N[C@@H]([C@@H](C)c2cccc3ccccc23)C(=O)N[C@@H](CC(=O)O)C(=O)N1C
B7: SEQ ID NO: 30 (peptide)
peptide: cyclo([Bip(4'-COOH)]W[Phe(4-COOH)]G[Pro(trans-4-NH2)][1Nal(3S-Me)]D[dNMeA]G[Bip(4'-COOH)]W[Dap][dA][h3Pal(5-CN)])
SMILES: C[C@@H]1C(=O)NCC(=O)N[C@@H](Cc2ccc(-c3ccc(C(=O)O)cc3)cc2)C(=O)N[C@@H](Cc2c[nH]c3ccccc23)C(=O)N[C@@H](CN)C(=O)N[C@H](C)C(=O)N[C@@H](CCc2cncc(C#N)c2)C(=O)N[C@@H](Cc2ccc(-c3ccc(C(=O)O)cc3)cc2)C(=O)N[C@@H](Cc2c[nH]c3ccccc23)C(=O)N[C@@H](Cc2ccc(C(=O)O)cc2)C(=O)NCC(=O)N2C[C@H](N)C[C@H]2C(=O)N[C@@H]([C@@H](C)c2cccc3ccccc23)C(=O)N[C@@H](CC(=O)O)C(=O)N1C
B8: SEQ ID NO: 24 (peptide)
peptide: cyclo([Bip(4'-COOH)]W[Phe(4-COOH)]G[Pro(trans-4-NH2)][1Nal(3S-Me)]D[dNMeA]G[Bip(4'-COOH)][Ala(4-THP)][Dap][dA][hTyr])
SMILES: C[C@@H]1C(=O)NCC(=O)N[C@@H](Cc2ccc(-c3ccc(C(=O)O)cc3)cc2)C(=O)N[C@@H](CC2CCOCC2)C(=O)N[C@@H](CN)C(=O)N[C@H](C)C(=O)N[C@@H](CCc2ccc(O)cc2)C(=O)N[C@@H](Cc2ccc(-c3ccc(C(=O)O)cc3)cc2)C(=O)N[C@@H](Cc2c[nH]c3ccccc23)C(=O)N[C@@H](Cc2ccc(C(=O)O)cc2)C(=O)NCC(=O)N2C[C@H](N)C[C@H]2C(=O)N[C@@H]([C@@H](C)c2cccc3ccccc23)C(=O)N[C@@H](CC(=O)O)C(=O)N1C
B9: SEQ ID NO: 25 (peptide)
peptide: cyclo([Bip(4'-COOH)]W[Phe(4-COOH)]G[Pro(trans-4-NH2)][1Nal(3S-Me)]D[dNMeA]G[Bip(4'-COOH)]KL[dA][hTyr])
SMILES: CC(C)C[C@@H]1NC(=O)[C@H](CCCCN)NC(=O)[C@H](Cc2ccc(-c3ccc(C(=O)O)cc3)cc2)NC(=O)CNC(=O)[C@@H](C)N(C)C(=O)[C@H](CC(=O)O)NC(=O)[C@H]([C@@H](C)c2cccc3ccccc23)NC(=O)[C@@H]2C[C@@H](N)CN2C(=O)CNC(=O)[C@H](Cc2ccc(C(=O)O)cc2)NC(=O)[C@H](Cc2c[nH]c3ccccc23)NC(=O)[C@H](Cc2ccc(-c3ccc(C(=O)O)cc3)cc2)NC(=O)[C@H](CCc2ccc(O)cc2)NC(=O)[C@@H](C)NC1=O

The binders below were run against Recombinant human IL-1β (BioLegend 579404) (human, UniProt P01584 117-269) (assay: cell-based or functional assay).

Binder	MRC5 IC50
B1	11.2 pM
B2	59.9 pM
B3	17 pM
B4	68.8 pM
B5	39.3 pM
B6	20.5 pM
B7	18.5 pM
B8	29.1 pM
B9	54.2 pM
